According to paper PMC5599796, “Structural insights into transcription initiation by yeast RNA polymerase I” (The EMBO Journal, 2017):

Key:
A135 = biological target: T1, A135 (S. cerevisiae (endogenous in strain …, UniProt P22138 1-1203)); experiment: cryo-EM structure; Pol I (1.5 uM) and Rrn3 (3 uM) mixed 5 h at 4°C, then 70-bp transcription scaffold (-50 to +20, 15-nt mismatch, 10-nt RNA) 1 h, then CF (1.5 uM); dialysed from 300 to 100 mM potassium acetate, 50 mM HEPES-NaOH pH 7.5, 5 mM magnesium acetate, 10 mM DTT; 38,589 particles, 4.4 Å; conditions: both partners purified
T1 construct: A135, second largest subunit of yeast RNA polymerase I; Stood in the assay as a subunit of Pol I within the PIC; also called second largest subunit of Pol I; source: purified from S. cerevisiae strain SC1613 as a subunit of Pol I
T1 sequence (looked up): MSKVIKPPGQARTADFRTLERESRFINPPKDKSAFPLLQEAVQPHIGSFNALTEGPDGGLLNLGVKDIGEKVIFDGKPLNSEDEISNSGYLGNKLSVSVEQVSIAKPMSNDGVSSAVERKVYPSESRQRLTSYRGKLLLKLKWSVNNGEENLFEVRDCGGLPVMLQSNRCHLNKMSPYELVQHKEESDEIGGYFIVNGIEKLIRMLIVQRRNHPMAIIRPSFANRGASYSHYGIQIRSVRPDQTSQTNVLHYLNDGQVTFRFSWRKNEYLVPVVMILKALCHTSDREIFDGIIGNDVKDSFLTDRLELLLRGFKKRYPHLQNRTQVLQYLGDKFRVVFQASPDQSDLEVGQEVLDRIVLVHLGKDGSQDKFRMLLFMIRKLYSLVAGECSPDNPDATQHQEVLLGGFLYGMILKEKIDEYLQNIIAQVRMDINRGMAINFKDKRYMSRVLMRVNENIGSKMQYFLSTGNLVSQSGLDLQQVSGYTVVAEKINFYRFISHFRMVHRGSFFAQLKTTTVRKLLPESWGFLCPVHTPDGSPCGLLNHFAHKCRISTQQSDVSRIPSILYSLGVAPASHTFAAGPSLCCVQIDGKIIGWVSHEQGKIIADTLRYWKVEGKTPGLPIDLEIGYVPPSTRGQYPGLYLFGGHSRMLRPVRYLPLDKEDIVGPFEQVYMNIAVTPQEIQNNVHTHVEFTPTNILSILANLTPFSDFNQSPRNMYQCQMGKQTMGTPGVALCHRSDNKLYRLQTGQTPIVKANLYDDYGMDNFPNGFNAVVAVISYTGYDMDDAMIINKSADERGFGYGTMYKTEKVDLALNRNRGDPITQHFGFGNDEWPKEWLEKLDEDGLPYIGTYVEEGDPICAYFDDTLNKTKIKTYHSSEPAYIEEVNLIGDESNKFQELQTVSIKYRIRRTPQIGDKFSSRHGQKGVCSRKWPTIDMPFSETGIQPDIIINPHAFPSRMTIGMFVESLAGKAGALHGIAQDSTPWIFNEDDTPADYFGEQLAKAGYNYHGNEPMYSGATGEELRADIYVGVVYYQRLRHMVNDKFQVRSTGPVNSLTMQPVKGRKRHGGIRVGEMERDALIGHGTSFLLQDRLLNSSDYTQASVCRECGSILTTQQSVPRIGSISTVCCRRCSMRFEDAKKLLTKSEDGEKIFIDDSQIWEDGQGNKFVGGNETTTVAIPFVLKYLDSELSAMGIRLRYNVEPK

Rrn7 = biological target: T2, Rrn7 (yeast, UniProt P40992 1-514); experiment: cross-linking; purified Pol I PIC (50 ug, 1 mg/ml) with H12/D12 DSS at 2 and 5 mM, 30 min at 37°C; LC-MS/MS, xQuest, LD score at least 23; conditions: both partners purified
T2 construct: Rrn7, TFIIB-like subunit of yeast Core Factor; Stood in the assay as a subunit of CF within the Pol I PIC; also called CF subunit Rrn7; TFIIB-related subunit Rrn7; source: E. coli BL21(DE3)Star pRARE, co-expressed as Core Factor, purified
T2 sequence: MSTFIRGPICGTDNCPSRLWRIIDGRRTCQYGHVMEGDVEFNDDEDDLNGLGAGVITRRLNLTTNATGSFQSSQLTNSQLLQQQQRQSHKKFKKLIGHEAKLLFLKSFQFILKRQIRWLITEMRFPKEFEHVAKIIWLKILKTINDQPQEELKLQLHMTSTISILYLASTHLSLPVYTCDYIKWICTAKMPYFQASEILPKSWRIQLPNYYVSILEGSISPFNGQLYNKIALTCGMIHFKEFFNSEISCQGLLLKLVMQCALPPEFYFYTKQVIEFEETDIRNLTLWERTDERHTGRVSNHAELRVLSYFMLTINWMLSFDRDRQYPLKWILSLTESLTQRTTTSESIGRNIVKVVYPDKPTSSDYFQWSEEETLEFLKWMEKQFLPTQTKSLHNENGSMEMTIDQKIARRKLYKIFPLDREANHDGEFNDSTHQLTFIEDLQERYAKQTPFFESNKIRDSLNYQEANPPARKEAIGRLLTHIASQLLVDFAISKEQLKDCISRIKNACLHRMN

B1: Rrn11 (natural protein, yeast)
chain: MFEVPITLTNRKFAQRRKLKYQYINYISRRFDRISKKSTTTDSLPTPENSAAENNDEEEGQNSEAGTYRRSVLQQKKRRRERHWRSVVGEIYSTTESETDSQEEETEEGGEHDTGIDKEDSDEERKFWKKYEKPEKSFEIWRTVSSQNKQPINKQKMTYHNFKKIEKIPLRKMEIPLLHCTKENKLYFQSISRGLEPLKTSTSEVRNYRTRHIVTLTDLLHLNVSRHNWSLAYKIFATLIRIPGVQIKSLWGIGVEILDNLSNSSSGLDFLQWMCQIYSSKSRFVQNINYRSIVPPFQTGSRTHTAKFAITYLWSSLINCQKSMEPSSNIIDKPFDTENDLLQELIDKISEWVLTPPFMEDAEVWFIYASCHLLKADTLSRQFVNDNKNNDLIGLDRDIKINQVIKHIHYVRTFLKICLDKGGFAVPSRLIENQLKSFESRLYGEAQDIQERDVANVYDSIDNSSVENSFGDVYETNAEFLDTQLMDLSPEDNGLDEMHYSDEDSSE
notes: Rrn11, subunit of yeast Core Factor; Stood in the assay as a subunit of CF within the Pol I PIC; also called CF subunit Rrn11; source: E. coli BL21(DE3)Star pRARE, co-expressed as Core Factor, purified
B1: binds (A135).

B2: Rpb12 (natural protein, UniProt P40422 1-70, looked up)
chain: MSREGFQIPTNLDAAAAGTSQARTATLKYICAECSSKLSLSRTDAVRCKDCGHRILLKARTKRLVQFEAR
notes: Rpb12, subunit of yeast RNA polymerase I; Stood in the assay as a subunit of Pol I within the PIC; source: purified from S. cerevisiae strain SC1613 as a subunit of Pol I
B2: binds (Rrn7).
